Measurements taken from the supplement of paper PMC9170038.

System: K4 kissing-loop RNA reporter
Assay: apparent KD of K4 kissing-loop reporter; higher = weaker reporter binding
Details: Eterna round: R107
Description: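 RNA-MaP round R107: designed RNA switches with theophylline, tryptophan, arginine or FMN aptamers are transcribed on-chip within common flanks. They are titrated with a labelled K4 kissing-loop RNA reporter in RNA-MaP buffer (100 mM Tris pH 7.5, 80 mM KCl, 4 mM MgCl2), without ligand or with the indicated ligand. Median apparent KD per design.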

[1] = input ligand: theophylline 20 uM
[2] = input ligand: tryptophan 2.4 mM
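Further: bound reporter read as fluorescence of individual clusters on recovered sequencing chips by microscopy, with normalized cluster intensities fitted with a binding model.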

Row | Sequence | apparent KD of K4 kissing-loop reporter (input ligand: FMN 200 uM) [nM] | apparent KD of K4 kissing-loop reporter (input ligand: arginine 13.2 mM) [nM] | apparent KD of K4 kissing-loop reporter (input ligand: none) [nM] | apparent KD of K4 kissing-loop reporter [1] [nM] | apparent KD of K4 kissing-loop reporter [2] [nM]
1 | GUGUGGAUCCGAAGGAGCGUCCGCAAUCCAGUGAUGUUGGGUGUUGGUUUUAGUAGACGAGGACAGGUAGGUCGCGGAUUUACAA [Same State Arginie B GF 23] | 133 | 104 | 153 | 110 | 105
2 | GUUACGCAUGGAAGGAGCGCACUCCGAUUGAUCGACACAGUGAUGUUGUGGUUCGUUCGAAUGCAGGUAGGUCGCCAUGUGUAAC [Ex Arginine B K4 17] | 259 | 250 | 253 | 303 | 233
3 | GUUACGCAUGGAAGGAGCGCAUGCUCAACUAUAAGCUCAGUGAUGUUGAGCAUUUUUUUUUUGCAGGUAGGUCGCCAUGUGUAAC [Ex Arginine B K4 29] | 320 | 255 | 386 | 438 | 217
4 | GUUACGCAUGGAAGGAGCGCUCUCAUGCUUAAUAACACAGUGAUGUUGUGAAUUUGCAUAAAGCAGGUAGGUCGCCAUGUGUAAC [Ex Arginine B K4 8] | 399 | 303 | 359 | 291 | 332
5 | GUUACGCAUGGAAGGAGCGCUCUCCGGUUUAUUAACACAGUGAUGUUGUGAUUUUACCGAAAGCAGGUAGGUCGCCAUGUGUAAC [Ex Arginine B K4 12] | 356 | 320 | 416 | 381 | 372
6 | GUUUCUUGGAAACAAGGACCGCUAACCGAAGGAGCGAGUGAAAACUCAGGUAGGUCGCGGUAGCGGAGUGAUGUUCCGCGUUUAC [Excluson Arginine A GF 15] | 91.3 | 129 | 123 | 150 | 99.8
7 | UAAAACGCUUGAAUAACAAGCGAAAAUUCGCGAGGACCGGUACGGCCGCCACUCGCUAACUGCGAGUGAUGUUCGAUAAUAAAAU [Mat - Mod of OpenEnded 3 - D4] | 149 | 70.1 | 158 | 188 | 95.5
8 | UAACUCUUGCAGUGAUGUUGCAAGUAAGCUCAGGAUAUCAGGAAACUGAGAAGGGAGUAUCCUGAGCUUCUGCAAGAGCUCAGAA [KL-SSFMN-A5] | 227 | 83.2 | 362 | 68.6 | 97.3
9 | UAAGAAUAAGUAGCAGUGAUGUUGCUACUGCGAGGACCGGUACGGCCGCCACUCGAGUCCUCGAAGCAUCACUGAACGAGGAAUA [whbob_SS_Tryp_A_m12] | 272 | 229 | 278 | 326 | 360
10 | UAAGCUCUGACGGCCGCCACUGCACGUGAUCCAGUAGUGGCUAACAUGAGUGAUGUUCAUGUAAGCAGGACCGGGUCAGAGCUAA [KL-XTryp-B13 #analogue] | 103 | 87.9 | 94.7 | 81.7 | 120
11 | UAAUAAAUUCCAGCGAUAUCGCUCUUCGAAGGAGCGGGCGAAGGUCCAGGUAGGUCGCGGAGAGUGAUGUUCUUUGCGGCGCUGG [whbob_Ex_Arginine_A_2t135] | 216 | 225 | 239 | 226 | 273
12 | UAAUAUAACCGAAGGAGCGCGUGGGCGCAGUGAUGUUGCGCCCGACAUCACUUCAACUAAACGCAGGUAGGUCGCGGUAAUAAUA [Arginine B (Excl) V1] | 134 | 83.1 | 104 | 84.2 | 98.4
13 | UAAUUUAUGUCUUUAAUUUAAUAAUCAGAUACCAGUGAUUUAUGACACCCUUGGCAGCUGUAUUGAGUGAUGUUCUUAUACUUAA [JR_Nu_ExcTheophyA_Sub021] | 131 | 169 | 171 | 212 | 101
14 | UACAAUUUGGCGGCCGCCACUGACCAUAGCCUUCGAUGGCCAGUGAUGUUGGCCUCUGGCUCUAACAGGACCGGGCCAAAUUAUG [Maeste] | 313 | 216 | 271 | 245 | 117
15 | UACAUAUAGUUAUUUCUACAUUUAUUUAGUCAGGAUAUCGAUUAGACGAGAAGGGACAAUAUCAAGUGAUGUUUGAUAAUUCAAA [JR_ExcFMNA_Sub011] | 75.7 | 111 | 68.4 | 100 | 53.2
16 | UACGUAGAGCGAGGAUAUCCUUCCCACGUCGAAGUACCGUGCUUGAUGGAGUGAUGUUCGAUCAGAGGAGAAGGUGCGAAACGUC [Flavin Switch Lower Fold Energy] | 725 | 618 | 724 | 622 | 524

Row | Sequence | apparent KD of K4 kissing-loop reporter (input ligand: FMN 200 uM) [nM] | apparent KD of K4 kissing-loop reporter (input ligand: arginine 13.2 mM) [nM] | apparent KD of K4 kissing-loop reporter (input ligand: none) [nM] | apparent KD of K4 kissing-loop reporter [1] [nM] | apparent KD of K4 kissing-loop reporter [2] [nM]
17 | UACUGGGCGAGUGAUGUUCGCUCACGUGAUACCAGUGCCAUCCAACACCCUUGGCAGCACGCGGGCAGUGAUGUUGUCCUUGUAU [Exclusion Theophylline A GF 5] | 127 | 112 | 123 | 129 | 111
18 | UAGACCAGUGAUGUUGGUUCCAAGACGGAUACCAGACUGGCAGAAGUCCCUUGGCAGCUGUAGACCUUGUGAGCUACAAGGUCGG [Theo A SS t2] | 923 | 184 | 440 | 170 | 295
19 | UAGCGAUGAAGUGAUACCAGAGAGUGAUGUUCUUUUUUUAUUCAGAAUACUGUCGCCUUGCUCCCUUGGCAGCACGCAGGCGCAG [theeternabot_exclusion_KL_Theo_B_18] | 206 | 255 | 258 | 311 | 171
20 | UAGCGUCUGCGAGGAUAUCGGAUUAGAGUGAUGUUCUAAAGACGCCCAGUGAUGUUGGAUGCGAUACGAGAAGGCGCUGGGCGCG [Same State FMN B GF7] | 182 | 358 | 399 | 332 | 297
21 | UAGGAGUGAUGUUCCAUAUCUUGAGCCGAAGGAGCGCCUUUAUAGGCAGGUAGGUCGCGGCAGAAGGUACCAGUGAUGUUGGAAA [Same State Arginine A GF6] | 147 | 147 | 164 | 145 | 135
22 | UAGUCCUAGUGAUCGUUAUCAAGUGGUGGGCGAGGACCGGUACGGCCGCCACUCGACUAUGCAGUGAUGUUGCAAUCCGGACAAU [Exclusion - Tryptophan A (Freestyle 14)] | 209 | 238 | 222 | 254 | 213
23 | UAGUCCUAGUGAUGGUUAUCACGUGGUGGGCGAGGACCGGUACGGCCGCCACUCGACUUUGCAGUGAUGUUGCAAUCCGGACAAU [Exclusion - Tryptophan A (Freestyle 17)] | 194 | 215 | 240 | 224 | 258
24 | UAUACGCUAGUGAUGUUGGCGAAGACUGAAGGAGCGUGCGAGAGUACAGGUAGGUCGCAGUCAGACAGAUUGUACCUGUCUUAUG [Arg A SS t10] | 268 | 243 | 295 | 349 | 356
25 | UAUACUAGACAAGAGAGAAUUCUCUCAAGAGAGGAUAUCCGAAUUCGGAGAAGGCUCUCUCAGUGAUGUUGGGAAUAGUCUAGAA [AK6 SS FMN A] | 150 | 151 | 188 | 229 | 177
26 | UAUAUAGUGAUGUUAUAUAUACAUUCGGAAGGAGCGUGGUAAAACACAGGUAGGUCGCUGAAAUAAUUAAAAUAAUUUUCUUUUU [AstrosSSArgA#1] | 255 | 231 | 279 | 239 | 231
27 | UAUAUAUGAUGUGAUACCAGUGAAAAGCCAGUGAUGUUGGAAGAACUGGUAUAUAAAUAACACCCUUGGCAGCACAAUCACGUAU [theophylline b exclusion] | 271 | 261 | 266 | 382 | 268
28 | UAUCAGAUUACUGAUACCAGUCUAAAGACAGUGAUGUUGUCUGAUCGACCACGAUCCAAGGACCCUUGGCAGCAGUGUACUAUUC [#30 K4 Theophylline B Same State] | 177 | 183 | 194 | 205 | 191
29 | UAUUAAUUGACGGCCGCCACUAUGGUGAUUUAUUUGUUUGAGUGAUGUUUUGAUGUUUGAUUUUGUAGGACCGGGUUAUGUGUUA [pokcmullin] | 962 | 738 | 853 | 748 | 680
30 | UAUUAAUUGUCAGGAUAUCGUAUUCGAGUGAUGUUCGUAUAUCGACGAUAGUCGAUAUUAUUUAUACGAGAAGGGACAUUAUUUA [JR_SSFMNB_Sub005] | 292 | 260 | 330 | 274 | 285
31 | UAUUUAUUAACUGAUACCAGACUUAAUGAAUUGUAAAUUACUAGUGAUGUUAGUGAAUCUGUCCCUUGGCAGCAGUAUUUAUUAA [JR_Nu_ExcTheophyB_Sub028] | 111 | 169 | 128 | 170 | 85.1
32 | UCAUCGGUACAAGGAUAUUAGAGGUAGUGAUGUUACCCGUUUUUUAUACAUCGAUGUCACCCUAACUAAGAAGGUGUUCAAACUU [theeternabot_exclusion_KL_FMN_B_7] | 62.5 | 52.7 | 50.2 | 54 | 38.4
